Assay results from US20050112698A1 (Bayer, published 2005).

How the values were obtained:
[1] = molecular target: T1, human Stem Cell Factor (human, UniProt P21583 26-189); assay: BIAcore, Affinity Estimation, Fab
T1 construct: Human SCF was bought from R&D Systems and is called soluble in the BIAcore assay; also called SCF; hSCF

[2] = molecular target: T1, human Stem Cell Factor; assay: cell-based or functional assay
[3] = molecular target: T2, Cynomolgus Monkey SCF (cynomolgus monkey, UniProt A0A7N9CAX5 26-189); assay: competition ELISA: cSCF binding to coated human SCFR, Fab 3.1 µg/ml
T2 construct: Soluble recombinant protein made in house (Bayer); NiNTA purification implies a His tag, but none is described; also called cSCF; cyno SCF
Method: The extracts containing Fab were also tested for the ability to inhibit SCF binding to the SCF receptor. ELISA plates were coated overnight with 2 μg/ml human SCFR (R&D Systems, Minneapolis, Minn.) in PBS at 4° C. After washing with TBS-T, the plate was blocked with 5 mg/ml BSA in PBS. The extract was diluted 1/5 in PBS buffer containing 12.5 ng/ml cSCF and 1 mg/ml BSA. After a 1 hr incubation at room temperature, 100 μl was added to the blocked ELISA plate and incubated an additional hour. The plate was washed 5 times with TBS-T, and 100 μl of a 0.4 μg/ml solution of anti-SCF (R&D Systems) in 1 mg/ml BSA in PBS was added. After 1 hour the plate was washed and incubated with anti-Mouse-HRP (Sigma, St. Louis, Mo.). The plate was developed with BM Blue POD substrate (Roche Diagnostics, Chicago, Ill.) and read at 370 nm.
(§1) TABLE 12 Sequences of the CDR3 Vk1 Region of Selected Antibody Clones with Comparison of koff and SCF Inhibitory Activity The off-rates were determined using a high density surface CM5 chip (5000 RU of immobilized cSCF) on BIAcore and are shown with comparison to the original A2-G8 clone. […] The IC₅₀ in the TF-1 proliferation assay was based on an average of two assays with the exception of the A2-G8-IgG (n = 5).

[4] = molecular target: T2, Cynomolgus Monkey SCF; assay: SPR BIAcore, 5000 RU immobilized cSCF, off-rate ranking
Method: as §1
Analysis of Fab binding to cSCF was performed by surface plasmon resonance using a BIAcore 2000 (Biacore, Piscataway, N.J.), according to the manufacturer's instructions and a CM5 chip (Biacore) coated with cSCF. For amine coupling, a research grade CM5 chip was activated using the standard NHS/EDC procedure. Cynomologus monkey SCF was diluted to 20 μg/ml in 10 mM NaAcetate, pH 5.0, and a total of 5000 RU's were coupled to channel 2 of the sensor surface. The remaining active sites were quenched by the addition of 1M ethanolamine, pH 8.0. Channel 1 was subjected to the coupling procedure in the absence of protein and was used as a reference surface. Extracts were diluted 1/5 in HBS-EP running buffer and injected for 2 min using a flow rate of 20 μl/min. The surface was regenerated by two consecutive injections of 25 μl, 10 mM glycine, pH 2.5, using a flow rate of 100 μl/min. The koff was calculated from a single concentration of Fab using BIAevaluation software (Biacore).

[5] = molecular target: T2, Cynomolgus Monkey SCF; assay: cell-based or functional assay
[6] = molecular target: T1, human Stem Cell Factor; assay: SPR BIAcore 2000, Fab over 150 RU immobilized hSCF
Method: (§2) Affinity measurements were carried out on a BIAcore 2000 (Biacore) at 25° C. […] Purified Fab's were diluted in HBS-EP running buffer at concentrations ranging from 1.95 to 125 nM. A volume of 100 μl was injected using a flow rate of 50 μl/min in Kinject mode. After a 10 min dissociation, 50 μl of 10 mM Glycine, pH 2.5 and 25 μl of 10 mM Glycine, pH 2.0 was injected using a flow rate of 100 μl/min. All samples were run in duplicate. […] Cynomologus monkey SCF was diluted in HBS-EP running buffer at concentrations ranging from 15.6 to 500 nM and 150 μl injected at a flow rate of 50 μl/min. After a 15 min dissociation, 50 μl of 10 mM Glycine, pH 2.5, and 25 μl of 10 mM Glycine, pH 1.5 was injected using a flow rate of 100 μl/min. All samples were run in duplicate. The data was globally fit to the 1 to 1 binding model using BIAevaluation software. The raw experimental data were corrected for instrumental and bulk solvent artifacts by double referencing using both activated and blocked surfaces as controls.
(§3) To evaluate the binding properties of anti-SCF Fabs selected from affinity optimization of the CDR3 loop with SCF, the real time interaction was measured using surface plasmon resonance with the BIAcore 2000. […] The improvement in Kd's are primarily governed by a substantial reduction in the off-rate (koff). […] The affinity constants for Fab binding to human SCF were slightly lower than those Kd's for cynomologus monkey SCF. The panning design, with lower antigen concentrations and extensive washing steps, favors off-rate selection. The affinity of the A2-G8 clone in an IgG vector was measured using the IgG immobilized to the surface of the CM5 chip.

[7] = molecular target: T1, human Stem Cell Factor; assay: cell-based or functional assay; remark: listed apart in the source
[8] = molecular target: T1, human Stem Cell Factor; assay: cell-based or functional assay; remark: listed apart in the source
[9] = molecular target: T2, Cynomolgus Monkey SCF; assay: SPR BIAcore 2000, Fab over 185 RU immobilized cSCF
Method: as §2, §3

T1 sequence (P21583 other isoform, or with tags, fused parts or gaps limits assumed): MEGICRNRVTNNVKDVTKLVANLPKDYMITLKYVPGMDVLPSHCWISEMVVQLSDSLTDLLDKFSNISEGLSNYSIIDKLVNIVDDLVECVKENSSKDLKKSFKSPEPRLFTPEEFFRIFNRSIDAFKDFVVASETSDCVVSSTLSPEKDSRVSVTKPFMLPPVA

| Binder | Kd [1] [nM] | TF-1 Fab assay IC50 [2] [µg/mL] | % Inhibition SCF Binding ELISA Assay [3] [%] | koff [4] [s⁻¹] | IC50 TF-1 cynoSCF Assay [5] [µg/mL] | Kd [6] [nM] | koff [6] [s⁻¹] | kon [6] [M⁻¹ s⁻¹] | IC50 TF-1 huSCF Assay [7] [µg/mL] | TF-1 proliferation IC50, fold lower than the A2-G8 Mab [8] [fold] | Kd [9] [nM] | koff [9] [s⁻¹] | kon [9] [M⁻¹ s⁻¹] |
| --- | --- | --- | --- | --- | --- | --- | --- | --- | --- | --- | --- | --- | --- |
| Fab A2-A1 (Fab, V domains shown) VH: not shown VL: DIQMTQSPSSLSASVGDRVTITCRASQGISSYLAWYQQKPGKAPKLLIYAASSLQSGVPSRFSGSGSGTDFTLTISSLQPEDFATYYCQQYSGMPYTFGQGTKVEIK | 57 | 25 |  |  |  |  |  |  |  |  |  |  |  |
| Fab A2-E8 (Fab, V domains shown) VH: not shown VL: DIQMTQSPSSLSASVGDRVTITCRASQGIFKYLAWYQQKPGKAPKLLIYAASSLQSGVPSRFSGSGSGTDFTLTISSLQPEDFATYYCQQYSGMPYTFGQGTKVEIK | 17 | 8 |  |  |  |  |  |  |  |  |  |  |  |
| Fab A2-H8 (Fab, V domains shown) VH: not shown VL: DIQMTQSPSSLSASVGDRVTITCRASQGIIGYLGWYQQKPGKAPKLLIYRASSLQSGVPSRFSGSGSGTDFTLTISSLQPEDFATYYCQQYSGMPYTFGQGTKVEIK | 44 | 25 |  |  |  |  |  |  |  |  |  |  |  |
| Fab A2-D12 (Fab, V domains shown) VH: not shown VL: DIQMTQSPSSLSASVGDRVTITCRASQGIWLYLSWYQQKPGKAPKLLIYAASSLQSGVPSRFSGSGSGTDFTLTISSLQPEDFATYYCQQYSGMPYTFGQGTKVEIK | 18 |  |  |  |  |  |  |  |  |  |  |  |  |
| Fab A8 (light chain CDR3 variant of A2-G8) (Fab, V domains shown, It carries FLAG and Strep tags) VH: not shown VL: QMTQSPSSLSASVGDRVTITCRASQGIRGYLGWYQQKPGKAPKLLIYSASSLQSGVPSRFSGSGSGTDFTLTISSLQPEDFATYYCCSAGFMPYTFGQGTKVEIKR |  |  | 70 | 0.00075 | 4.64 |  |  |  |  |  |  |  |  |
| Fab D6L (Fab, V domains shown, Light chain CDR3 variant of Fab A2-G8; It carries FLAG and Strep tags) VH: not shown VL: QMTQSPSSLSASVGDRVTITCRASQGIRGYLGWYQQKPGKAPKLLIYSASSLQSGVPSRFSGSGSGTDFTLTISSLQPEDFATYYCGEWLSMPYTFGQGTKVEIKR |  |  | 70 | 0.0003 | 1.46 | 1.4 | 0.00027 | 190000 | 0.19 | ≥ 6 | 5.4 | 0.00073 | 130000 |
| Fab A12 (Fab, V domains shown, Light chain CDR3 variant of Fab A2-G8; It carries FLAG and Strep tags) VH: not shown VL: QMTQSPSSLSASVGDRVTITCRASQGIRGYLGWYQQKPGKAPKLLIYSASSLQSGVPSRFSGSGSGTDFTLTISSLQPEDFATYYCGEWAYMPYTFGQGTKVEIKR |  |  | 68 | 0.00044 | 1.65 | 1.8 | 0.00046 | 250000 | 0.38 | ≥ 6 | 5.5 | 0.00087 | 160000 |
| Fab D5 (light chain CDR3 variant of A2-G8) (Fab, V domains shown, It carries FLAG and Strep tags) VH: not shown VL: QMTQSPSSLSASVGDRVTITCRASQGIRGYLGWYQQKPGKAPKLLIYSASSLQSGVPSRFSGSGSGTDFTLTISSLQPEDFATYYCASQGWMPYTFGQGTKVEIKR |  |  | 75 | 0.00027 | 0.48 | 0.8 | 0.00024 | 290000 | 0.09 | ≥ 6 | 3.6 | 0.00069 | 190000 |
| Fab B1 (Fab, V domains shown, It carries FLAG and Strep tags) VH: not shown VL: QMTQSPSSLSASVGDRVTITCRASQGIRGYLGWYQQKPGKAPKLLIYSASSLQSGVPSRFSGSGSGTDFTLTISSLQPEDFATYYCAEYIRMPYTFGQGTKVEIKR |  |  | 65 | 0.00041 | 2.07 | 1.6 | 0.0005 | 320000 | 0.14 | ≥ 6 | 4.9 | 0.00104 | 210000 |
| Fab F5L (Fab, V domains shown, Light chain CDR3 variant of Fab A2-G8; It carries FLAG and Strep tags) VH: not shown VL: QMTQSPSSLSASVGDRVTITCRASQGIRGYLGWYQQKPGKAPKLLIYSASSLQSGVPSRFSGSGSGTDFTLTISSLQPEDFATYYCSAHGFMPYTFGQGTKVEIKR |  |  | 85 | 0.00024 | 0.78 | 1.3 | 0.00022 | 170000 | 0.17 | ≥ 6 | 2.6 | 0.00028 | 110000 |
| Fab B9 (Fab, V domains shown, It carries FLAG and Strep tags; also called B9L) VH: not shown VL: QMTQSPSSLSASVGDRVTITCRASQGIRGYLGWYQQKPGKAPKLLIYSASSLQSGVPSRFSGSGSGTDFTLTISSLQPEDFATYYCAGTGFMPYTFGQGTKVEIKR |  |  | 70 | 0.00048 | 5.45 | 1.7 | 0.0005 | 300000 | 2.01 |  | 4.3 | 0.00079 | 190000 |
